Reference: patent US20230227584A1 (published 2023)
Where a chain is given by its changes, count along the chain named. One block for each binder: values may come before it.

Assays:
[1] = biological target: T1, human OX40 on the cell surface (activated human T cells; HeLa_hOx40_NFkB_Luc1 reporter cells) (human, UniProt P43489 29-277); experiment: cell-based or functional assay
T1 sequence: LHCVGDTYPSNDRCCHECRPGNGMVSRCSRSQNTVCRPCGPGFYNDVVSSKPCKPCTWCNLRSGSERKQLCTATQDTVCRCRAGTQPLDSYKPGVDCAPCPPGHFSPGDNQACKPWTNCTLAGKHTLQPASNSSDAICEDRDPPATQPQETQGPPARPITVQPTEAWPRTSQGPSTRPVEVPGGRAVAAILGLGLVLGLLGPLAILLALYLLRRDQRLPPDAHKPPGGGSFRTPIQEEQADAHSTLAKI

[2] = biological target: T1, human OX40 on the cell surface …; experiment: cell-based or functional assay; remark: listed apart in the source
[3] = biological target: T1, human OX40 on the cell surface …; experiment: cell-based or functional assay; remark: listed apart in the source
[4] = biological target: T1, human OX40 on the cell surface …; experiment: cell-based or functional assay; remark: listed apart in the source
[5] = biological target: T2, human fibroblast activation protein (huFAP) on NIH/3T3-huFAP clone 19 cells (human, UniProt Q12884 1-760); experiment: flow cytometry, NIH/3T3-huFAP clone 19 cells
T2 construct: Mouse NIH/3T3 fibroblasts transfected with vector pETR4921 to express huFAP; also called cell surface FAP
Description: In another experiment, a mixture of 2 × 10⁵ NIH/3T3-huFAP clone 19 cells and HeLa cells in FACS buffer were added to each well of a round-bottom 96-well plates (TPP, Cat. No. 92097) and the binding assay was performed. Cells were first stained 20 min with LIVE/DEAD™ Fixable Aqua Dead Cell Stain (Molecular probes, Cat.No. L34957) in DPBS, followed after one washing step with 200 µL 4° C. […] Afterwards the cells were washed once with 200 µL FACS buffer at 4° C. and resuspended by a short vortex. Cells were further stained with 50 µL/well of 4° C. cold secondary antibody solution containing Phycoerythrin (PE)-conjugated AffiniPure anti-human IgG Fcy-fragment-specific goat IgG F(ab′)2 fragment (Jackson ImmunoResearch, Cat. No. 109-116-098) and incubated for 30 minutes at 4° C. in the dark. Samples were finally resuspended in 100 µL/well FACS-buffer and acquired the same day using with BD Fortessa running FACS Diva software.

[6] = biological target: T1, human OX40 on the cell surface …; experiment: flow cytometry, activated human PBMC gated on CD4+ T cells
[7] = biological target: T3, FcRn (biotinylated, coupled to streptavidin-sepharose); experiment: FcRn affinity chromatography; retention compared to protein standards with known affinities
T3 construct: also called neonatal Fc receptor
Description: For coupling, the prepared receptor was added to streptavidin-sepharose (GE Healthcare). The resulting FcRn-sepharose matrix was packed in a column housing. The column was equilibrated with 20 mM 2-(N-morpholine)-ethanesulfonic acid (MES) and 140 mM NaCl, pH 5.5 (eluent A) at a 0.5 ml/min flow rate. 30 µg of antibody samples were diluted at a volume ratio of 1: 1 with eluent A and applied to the FcRn column. The column was washed with 5 column volumes of eluent A followed by elution with a linear gradient from 20 to 100% 20 mM Tris/HCl and 140 mM NaCl, pH 8.8 (eluent B) in 35 column volumes. The analysis was performed with a column oven at 25° C. The elution profile was monitored by continuous measurement of the absorbance at 280 nm. Retention times were compared to protein standards with known affinities.

EC50 of NFκB activation (luciferase), HeLa_hOx40_NFkB_Luc1, w/ hu FAP [1]: 0.2 nM
EC50 of NFκB activation (luciferase), HeLa_hOx40_NFkB_Luc1, w/o [1]: 0.8 nM
EC50 of CD25 upregulation on CD4+ T cells, suboptimal TCR stimulation of human PBMC with NIH/3T3-huFAP cells [2]: 0.003 nM
EC50 of increased TCB mediated cytokine secretion following FAP-OX40 costimulation of primary human PBMCs [3]: 0.058 nM
EC50 of suppression of FoxP3 induction (FoxP3 MFI) on TGFβ-exposed CD4 T cells, FAP-coated beads [4]: 0.25 nM
EC50 [5]: 1.71 nM
EC50 [6]: 1.47 nM
FcRn affinity [7]: -0.1
B1: P1AF6455 OX40(CLC563) x FAP(1G1a_EPKSCS) 3+1 (bispecific antibody, human IgG1, kappa, L234A L235A)
heavy 1: not shown
heavy 2: not shown
light 1: not shown
light 2: EIVLTQSPATLSLSPGERATLSCRASESVDNYGLSFINWFQQKPGQAPRLLIYGTSNRGSGIPARFSGSGSGTDFTLTISSLEPEDFAVYFCQQSNEVPYTFGGGTKVEIKSSASTKGPSVFPLAPSSKSTSGGTAALGCLVKDYFPEPVTVSWNSGALTSGVHTFPAVLQSSGLYSLSSVVTVPSSSLGTQTYICNVNHKPSNTKVDKKVEPKSCS
notes: Human IgG1 Fc, knob-into-hole, PGLALA; also called CLC-563, S-variant 3+1

EC50 of NFκB activation (luciferase), HeLa_hOx40_NFkB_Luc1, w/ hu FAP [1]: 0.2 nM
EC50 of NFκB activation (luciferase), HeLa_hOx40_NFkB_Luc1, w/o [1]: 1.9 nM
EC50 of CD25 upregulation on CD4+ T cells, suboptimal TCR stimulation of human PBMC with NIH/3T3-huFAP cells [2]: 0.001 nM
EC50 of increased TCB mediated cytokine secretion following FAP-OX40 costimulation of primary human PBMCs [3]: 0.144 nM
EC50 of suppression of FoxP3 induction (FoxP3 MFI) on TGFβ-exposed CD4 T cells, FAP-coated beads [4]: 0.11 nM
EC50 [5]: 1.22 nM
EC50 [6]: 1.64 nM
FcRn affinity [7]: -0.1
B2: P1AF6454 OX40 (CLC563) x FAP (1G1a_EPKSCD) (3+1) C-terminal crossfab fusion (bispecific antibody, human IgG1, kappa, L234A L235A)
heavy 1: not shown
heavy 2: not shown
light 1: not shown
light 2: B1 light 2 with S217D
notes: 3+1 format; Human IgG1 Fc, knob-into-hole, PGLALA; VL-CH1 chain ends in EPKSCD; also called CLC-563, D-variant 3+1; 3+1 CLC563/H212-D
